Data published in patent US20240034757A1 (OXFORD UNIVERSITY INNOVATION, published 2024).
Changes are numbered by the printed parent chain. Names may count otherwise.

Columns and labels:
Assay in all cases: BLI [Cont.) C]
CXCL3_HUMAN = target: T1, CXCL3_HUMAN (human, UniProt P19876 35-107)
T1 sequence: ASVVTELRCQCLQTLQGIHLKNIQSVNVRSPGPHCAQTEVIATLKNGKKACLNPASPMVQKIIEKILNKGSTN

CXCL8_HUMAN = target: T2, CXCL8_HUMAN (human, UniProt P10145 28-99)
T2 sequence: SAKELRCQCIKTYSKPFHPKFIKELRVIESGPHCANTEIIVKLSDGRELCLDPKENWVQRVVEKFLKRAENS

CXCL14_HUMAN = target: T3, CXCL14_HUMAN (human, UniProt O95715 35-111)
T3 sequence: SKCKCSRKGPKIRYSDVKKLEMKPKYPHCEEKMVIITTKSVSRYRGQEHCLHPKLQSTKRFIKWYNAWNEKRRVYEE

CXCL4_HUMAN = target: T4, CXCL4_HUMAN (human, UniProt P02776 32-101)
T4 sequence: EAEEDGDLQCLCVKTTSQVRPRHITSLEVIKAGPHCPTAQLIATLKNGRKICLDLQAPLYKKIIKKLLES

CXCL12_HUMAN = CXCL12_HUMAN (human, UniProt P48061 22-89)
CXCL1_HUMAN = target: T5, CXCL1_HUMAN (human, UniProt P09341 35-107)
T5 sequence: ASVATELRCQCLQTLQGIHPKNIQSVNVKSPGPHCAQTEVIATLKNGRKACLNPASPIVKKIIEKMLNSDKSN

CXCL2_HUMAN = target: T6, CXCL2_HUMAN (human, UniProt P19875 35-107)
T6 sequence: T5 sequence with S2P, V3L, P20L, N27K, R48Q, I58M, N68K, S69N, D70G

CXCL6_HUMAN = target: T7, CXCL6_HUMAN (human, UniProt P80162 38-114)
T7 sequence: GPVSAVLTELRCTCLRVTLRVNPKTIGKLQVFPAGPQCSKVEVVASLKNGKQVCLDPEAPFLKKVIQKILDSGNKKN

CXCL5_HUMAN = target: T8, CXCL5_HUMAN (human, UniProt P42830 41-114)
T8 sequence: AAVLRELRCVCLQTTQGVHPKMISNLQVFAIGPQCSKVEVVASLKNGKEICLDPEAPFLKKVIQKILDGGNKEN

CXCL9_HUMAN = target: T9, CXCL9_HUMAN (human, UniProt Q07325 23-125)
T9 sequence: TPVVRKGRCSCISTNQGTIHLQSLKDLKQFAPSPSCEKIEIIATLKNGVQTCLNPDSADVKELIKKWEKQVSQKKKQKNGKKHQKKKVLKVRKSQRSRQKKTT

CXCL7_HUMAN = target: T10, CXCL7_HUMAN (human, UniProt P02775 59-128)
T10 sequence: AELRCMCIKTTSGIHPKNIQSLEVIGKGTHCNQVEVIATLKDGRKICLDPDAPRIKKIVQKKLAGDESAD

Sequence of CXCL12_HUMAN (P48061 22-89 limits assumed): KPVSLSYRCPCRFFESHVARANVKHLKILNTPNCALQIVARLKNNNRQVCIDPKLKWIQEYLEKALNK

B1: P1243:G4S:P1156 (designed binder)
chain: RNHTEDNSTEYYDYEEARCACPARHLNNTNGTVLKLLGCHYFCNGTLCTAPDGYPCYNLTAQQVRTLTTYPNTSCAVGVCMKGTCVKNGTMEQCFKTPGGGGSADDDNELFTVQYCGMNCTKDEGGTWTGCTGKKEGCKCYHESGKNYGLCLSTEYTDFSQYGNPSDSEIEAAKPKRSDTLSH
**Q.** Does B1 bind (CXCL3_HUMAN)?
**A.** no binding (tested: 300 nM)

**Q.** What about the Kd (CXCL8_HUMAN) of the same binder?
**A.** 7.63 nM

**Q.** Does B1 bind (CXCL14_HUMAN)?
**A.** no binding (tested: 300 nM)

**Q.** Does B1 bind (CXCL4_HUMAN)?
**A.** no binding (tested: 300 nM)

**Q.** Does B1 bind (CXCL12_HUMAN)?
**A.** no binding (tested: 300 nM)

**Q.** And the Kd (CXCL1_HUMAN)?
**A.** 17.4 nM

**Q.** Does B1 bind (CXCL2_HUMAN)?
**A.** no binding (tested: 300 nM)

**Q.** Does B1 bind (CXCL6_HUMAN)?
**A.** no binding (tested: 300 nM)

**Q.** Does B1 bind (CXCL5_HUMAN)?
**A.** no binding (tested: 300 nM)

**Q.** Does B1 bind (CXCL9_HUMAN)?
**A.** no binding (tested: 300 nM)

**Q.** Does B1 bind (CXCL7_HUMAN)?
**A.** no binding (tested: 300 nM)
